The values below come from PMC11558545, “Mechanistic Insights into the Function of 14-3-3 Proteins as Negative Regulators of Brassinosteroid Signaling in Arabidopsis” (Plant and Cell Physiology, 2024).

pKd: −log10 of the molar value.

By pKd is commonly meant −log10 of the Kd, conventionally taken in molar units. High values mean a low Kd, low ones a high Kd. For orientation: stoichiometry N means the number of molecules, sites or subunits per partner or assembly.

Experiment [1] addresses Arabidopsis 14-3-3 isoform kappa (At14-3-3-κ^1−248) (Arabidopsis thaliana) (UniProt P48348). Briefly: ITC; Nano ITC, 25°C, 25 mM Hepes pH 7.0, 50 mM KCl; 600 μM peptide or phosphopeptide injected into 50 μM 14-3-3 protein in the cell, 25 injections.
The target in experiment [2] is biotinylated 14-3-3 ω dimer (Arabidopsis thaliana) (UniProt Q01525). Briefly: grating-coupled interferometry (GCI); Creoptix WAVE; biotinylated 14-3-3 ω dimer captured on a streptavidin-coated 4PCH chip (~500 pg/mm^2); peptide as analyte, 2-fold dilution series from 10 µM; 25°C; 20 mM Hepes, 150 mM NaCl; 1-to-1 (2:2) binding model.
Chain of biotinylated 14-3-3 ω dimer (Arabidopsis thaliana) (Q01525 whole entry): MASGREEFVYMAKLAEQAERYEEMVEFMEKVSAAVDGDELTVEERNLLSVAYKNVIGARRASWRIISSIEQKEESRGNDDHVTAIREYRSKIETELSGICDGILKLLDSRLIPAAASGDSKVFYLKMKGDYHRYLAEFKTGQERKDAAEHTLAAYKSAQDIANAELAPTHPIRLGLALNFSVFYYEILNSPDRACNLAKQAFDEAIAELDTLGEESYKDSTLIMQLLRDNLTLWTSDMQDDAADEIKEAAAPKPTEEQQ
The target in a further experiment is 14-3-3κ (UniProt P48348). As to the kind of experiment: isothermal titration calorimetry.
Chain of 14-3-3κ (P48348 whole entry, looked up): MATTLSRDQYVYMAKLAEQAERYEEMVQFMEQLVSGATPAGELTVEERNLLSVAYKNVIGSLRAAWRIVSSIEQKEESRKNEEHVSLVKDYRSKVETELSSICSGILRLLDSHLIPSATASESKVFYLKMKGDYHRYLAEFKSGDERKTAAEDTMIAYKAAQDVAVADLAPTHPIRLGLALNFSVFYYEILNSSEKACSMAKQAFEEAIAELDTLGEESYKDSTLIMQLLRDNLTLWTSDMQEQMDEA

Chain of Arabidopsis 14-3-3 isoform kappa (At14-3-3-κ^1−248) (Arabidopsis thaliana) (P48348 whole entry, canonical isoform): as the sequence (P48348 whole entry, looked up) above

In experiment [1], pBZR1^169−175 peptide showed a pKd of 6.30 and a stoichiometry N of 1. In experiment [2], this substance had a pKd of 6.30 and a complex lifetime of 1 s.

As to pBKI1^265−272 peptide, in experiment [1], the pKd is 4.80 and the stoichiometry N was 1.

Substance pBRI1^869−874 peptide came in with a stoichiometry N in experiment [1] of 1.

Consider “BRI1 869-874 (from UniProt O22476) pT872 peptide”, for which the “binding against the reference” value with 14-3-3κ (reference: unphosphorylated BRI1 869-874 peptide, sites T872) is on record as “gained”.

As for “BKI1 265-272 (from UniProt Q9FMZ0) pS270 peptide”, the KD result with 14-3-3κ (reference: unphosphorylated BKI1 265-272 peptide, sites S270) is “gained; reference No binding was detected”.
